Measured values taken from patent US20150175707.

Assays:
[1] = HP-SEC as in Example 20, fraction of peak area; Fc:Fc self-oligomerization
[2] = HP-SEC, 0.15 M NaCl/0.1 M citrate pH 6.8; Fc:Fc self-oligomerization
[3] = HP-SEC, 0.15 M NaCl/0.1 M citrate pH 5.0; Fc:Fc self-oligomerization
[4] = HP-SEC, 0.1 M Na2SO4/0.1 M sodium phosphate pH 6.8; Fc:Fc self-oligomerization
[5] = HP-SEC, 0.1 M Na2SO4/0.1 M sodium phosphate pH 6.8 (Example 23); Fc:Fc self-oligomerization
[6] = HP-SEC as in Example 20; Fc:Fc self-oligomerization
[7] = HP-SEC, PBS pH 7.4 as mobile phase; Fc:Fc self-oligomerization

B1: Fc-RGY (IgG1m(f) Fc fragment with E345R, E430G and S440Y) (protein)
chain: EPKSCDKTHTCPPCPAPELLGGPSVFLFPPKPKDTLMISRTPEVTCVVVDVSHEDPEVKFNWYVDGVEVHNAKTKPREEQYNSTYRVVSVLTVLHQDWLNGKEYKCKVSNKALPAPIEKTISKAKGQPRRPQVYTLPPSREEMTKNQVSLTCLVKGFYPSDIAVEWESNGQPENNYKTTPPVLDSDGSFFLYSKLTVDKSRWQQGNVFSCSVMHGALHNHYTQKYLSLSPGK
[1]
  fraction monomers (HP-SEC): approximately 28% monomers
  fraction oligomers (HP-SEC): 72% oligomers distributed over multiple states

B2: IgG1-005-E345R/E430G/S440Y (protein)
chain: ASTKGPSVFPLAPSSKSTSGGTAALGCLVKDYFPEPVTVSWNSGALTSGVHTFPAVLQSSGLYSLSSVVTVPSSSLGTQTYICNVNHKPSNTKVDKRVEPKSCDKTHTCPPCPAPELLGGPSVFLFPPKPKDTLMISRTPEVTCVVVDVSHEDPEVKFNWYVDGVEVHNAKTKPREEQYNSTYRVVSVLTVLHQDWLNGKEYKCKVSNKALPAPIEKTISKAKGQPRRPQVYTLPPSREEMTKNQVSLTCLVKGFYPSDIAVEWESNGQPENNYKTTPPVLDSDGSFFLYSKLTVDKSRWQQGNVFSCSVMHGALHNHYTQKYLSLSPGK
[2]
  oligomerization (HP-SEC): in citrate pH 6.8 the antibody displayed 84% oligomerization
[3]
  fraction monomeric species (HP-SEC): >99% of the protein eluting as a monomeric species
  fraction multimer (HP-SEC): The fraction multimer dropped to less than 1%
[4]
  fraction monomeric species (HP-SEC): 21% of the population eluted in a peak observed at the expected elution time for a monomeric species
  fraction oligomer (HP-SEC): a large fraction oligomer which was estimated at 79%
[5]
  fraction monomeric species (HP-SEC): 23% of the population eluted as a monomeric species
  fraction oligomer (HP-SEC): a fraction oligomer of 77%
[6]
  % multimeric (HP-SEC): IgG1-005-RGY (79.2% multimeric)
[7]
  % multimers (HP-SEC): IgG1-005-RGY (84% multimers)

B3: IgG1-005-E345R/E430G/S440K (protein)
chain: ASTKGPSVFPLAPSSKSTSGGTAALGCLVKDYFPEPVTVSWNSGALTSGVHTFPAVLQSSGLYSLSSVVTVPSSSLGTQTYICNVNHKPSNTKVDKRVEPKSCDKTHTCPPCPAPELLGGPSVFLFPPKPKDTLMISRTPEVTCVVVDVSHEDPEVKFNWYVDGVEVHNAKTKPREEQYNSTYRVVSVLTVLHQDWLNGKEYKCKVSNKALPAPIEKTISKAKGQPRRPQVYTLPPSREEMTKNQVSLTCLVKGFYPSDIAVEWESNGQPENNYKTTPPVLDSDGSFFLYSKLTVDKSRWQQGNVFSCSVMHGALHNHYTQKKLSLSPGK
[7]
  % multimers (HP-SEC): IgG1-005-RGK (2.2% multimers)

B4: IgG1-005-E345R/E430G/K439E/S440Y (protein)
chain: ASTKGPSVFPLAPSSKSTSGGTAALGCLVKDYFPEPVTVSWNSGALTSGVHTFPAVLQSSGLYSLSSVVTVPSSSLGTQTYICNVNHKPSNTKVDKRVEPKSCDKTHTCPPCPAPELLGGPSVFLFPPKPKDTLMISRTPEVTCVVVDVSHEDPEVKFNWYVDGVEVHNAKTKPREEQYNSTYRVVSVLTVLHQDWLNGKEYKCKVSNKALPAPIEKTISKAKGQPRRPQVYTLPPSREEMTKNQVSLTCLVKGFYPSDIAVEWESNGQPENNYKTTPPVLDSDGSFFLYSKLTVDKSRWQQGNVFSCSVMHGALHNHYTQEYLSLSPGK
[7]
  % multimers (HP-SEC): IgG1-005-RGEY (2.7% multimers)

B5: IgG1-005-E345R/E430G/Y436I/S440K (protein)
chain: ASTKGPSVFPLAPSSKSTSGGTAALGCLVKDYFPEPVTVSWNSGALTSGVHTFPAVLQSSGLYSLSSVVTVPSSSLGTQTYICNVNHKPSNTKVDKRVEPKSCDKTHTCPPCPAPELLGGPSVFLFPPKPKDTLMISRTPEVTCVVVDVSHEDPEVKFNWYVDGVEVHNAKTKPREEQYNSTYRVVSVLTVLHQDWLNGKEYKCKVSNKALPAPIEKTISKAKGQPRRPQVYTLPPSREEMTKNQVSLTCLVKGFYPSDIAVEWESNGQPENNYKTTPPVLDSDGSFFLYSKLTVDKSRWQQGNVFSCSVMHGALHNHITQKKLSLSPGK
[7]
  % multimers (HP-SEC): IgG1-005-RGIK (1.8% multimers)

B6: IgG1-M1-RGY (C. albicans mannan antibody M1g1 with E345R/E430G/S440Y) (protein)
chain: ASTKGPSVFPLAPSSKSTSGGTAALGCLVKDYFPEPVTVSWNSGALTSGVHTFPAVLQSSGLYSLSSVVTVPSSSLGTQTYICNVNHKPSNTKVDKRVEPKSCDKTHTCPPCPAPELLGGPSVFLFPPKPKDTLMISRTPEVTCVVVDVSHEDPEVKFNWYVDGVEVHNAKTKPREEQYNSTYRVVSVLTVLHQDWLNGKEYKCKVSNKALPAPIEKTISKAKGQPRRPQVYTLPPSREEMTKNQVSLTCLVKGFYPSDIAVEWESNGQPENNYKTTPPVLDSDGSFFLYSKLTVDKSRWQQGNVFSCSVMHGALHNHYTQKYLSLSPGK
[6]
  fraction oligomer (HP-SEC): IgG1-M1-RGY (74.5%)
